From publication PMC9076634, “Fibronectin binding protein B binds to loricrin and promotes corneocyte adhesion by Staphylococcus aureus” (Nature Communications, 2022) come the findings set out here.

As a reminder, the koff is the first-order rate constant of dissociation.

The assay deals with T1, recombinant GST-tagged human loricrin (GST-loricrin) (human, UniProt P23490 1-312).
T1 construct: loricrin, human, full length; also called GST-tagged full length loricrin
T1 sequence (looked up): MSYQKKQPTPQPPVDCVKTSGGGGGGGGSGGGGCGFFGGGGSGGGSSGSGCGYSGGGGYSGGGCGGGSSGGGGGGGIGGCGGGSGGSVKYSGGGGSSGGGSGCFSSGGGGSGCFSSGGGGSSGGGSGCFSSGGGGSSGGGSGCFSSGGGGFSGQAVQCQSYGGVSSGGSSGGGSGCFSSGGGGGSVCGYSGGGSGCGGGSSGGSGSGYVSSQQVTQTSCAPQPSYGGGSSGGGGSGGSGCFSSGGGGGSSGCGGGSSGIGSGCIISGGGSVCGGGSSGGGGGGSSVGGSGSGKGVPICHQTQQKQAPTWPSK
The experiment in a line: dynamic force spectroscopy (AFM); as the single-molecule force spectroscopy, retraction speeds 1, 2.5, 5 and 10 µm s^-1; Bell-Evans fit of the high-force regime (loading rates 1.4 × 10^4 to 5 × 10^5 pN s^-1). The following applies: one partner purified.

B1: fibronectin binding protein B (FnBPB) on S. aureus SH1000 4X (pFnBPB) cells (natural protein)
chain: ASEQNNTTVEESGSSATESKASETQTTTNNVNTIDETQSYSATSTEQPSQSTQVTTEEAPKTVQAPKVETSRVDLPSEKVADKETTGTQVDIAQPSNVSEIKPRMKRSTDVTAVAEKEVVEETKATGTDVTNKVEVEEGSEIVGHKQDTNVVNPHNAERVTLKYKWKFGEGIKAGDYFDFTLSDNVETHGISTLRKVPEIKSTDGQVMATGEIIGERKVRYTFKEYVQEKKDLTAELSLNLFIDPTTVTQKGNQNVEVKLGETTVSKIFNIQYLGGVRDNWGVTANGRIDTLNKVDGKFSHFAYMKPNNQSLSSVTVTGQVTKGNKPGVNNPTVKVYKHIGSDDLAESVYAKLDDVSKFEDVTDNMSLDFDTNGGYSLNFNNLDQSKNYVIKYEGYYDSNASNLEFQTHLFGYYNYYYTSNLTWKNGVAFYSNNAQGDGKDKLKEPIIEHSTPIELEFKSEPPVEKHELTGTIEESNDSKPIDFEYHTAVEGAEGHAEGTIETEEDSIHVDFEESTHENSKHHADVVEYEEDTNPGGGQVTTESNLVEFDEDSTKGIVTGAVSDHTTIEDTKEYTTESNLIELVDELPEEHGQAQGPIEEITENNHHISHSGLGTENGHGNYGVIEEIEENSHVDIKSELGYEGGQNSGNQSFEEDTEEDKPKYEQGGNIVDIDFDSVPQIHGQNNGNQSFEEDTEKDKPKYEQGGNIIDIDFDSVPHIHGFNKHTEIIEEDTNKDKPNYQFGGHNSVDFEEDTLPQVSGHNEGQQTIEEDTTPPIVPPTPPTPEVPSEPETPTPPTPEVPSEPETPTPPTPEVPTEPGKPIPPAKEEPKKPSKPVEQGKVVTPVIEINEKVKAVVPTKKAQSKKSELPET
Consider B1, for which the koff is 5.8e-09 s⁻¹.
